This is an account of results in PMC7280309 (Nature Communications, 2020).

Sequences and labels used below:
T1: DotL with a C-terminal Strep-tag (Legionella pneumophila, UniProt Q5ZYC6 1-783)
T1 sequence: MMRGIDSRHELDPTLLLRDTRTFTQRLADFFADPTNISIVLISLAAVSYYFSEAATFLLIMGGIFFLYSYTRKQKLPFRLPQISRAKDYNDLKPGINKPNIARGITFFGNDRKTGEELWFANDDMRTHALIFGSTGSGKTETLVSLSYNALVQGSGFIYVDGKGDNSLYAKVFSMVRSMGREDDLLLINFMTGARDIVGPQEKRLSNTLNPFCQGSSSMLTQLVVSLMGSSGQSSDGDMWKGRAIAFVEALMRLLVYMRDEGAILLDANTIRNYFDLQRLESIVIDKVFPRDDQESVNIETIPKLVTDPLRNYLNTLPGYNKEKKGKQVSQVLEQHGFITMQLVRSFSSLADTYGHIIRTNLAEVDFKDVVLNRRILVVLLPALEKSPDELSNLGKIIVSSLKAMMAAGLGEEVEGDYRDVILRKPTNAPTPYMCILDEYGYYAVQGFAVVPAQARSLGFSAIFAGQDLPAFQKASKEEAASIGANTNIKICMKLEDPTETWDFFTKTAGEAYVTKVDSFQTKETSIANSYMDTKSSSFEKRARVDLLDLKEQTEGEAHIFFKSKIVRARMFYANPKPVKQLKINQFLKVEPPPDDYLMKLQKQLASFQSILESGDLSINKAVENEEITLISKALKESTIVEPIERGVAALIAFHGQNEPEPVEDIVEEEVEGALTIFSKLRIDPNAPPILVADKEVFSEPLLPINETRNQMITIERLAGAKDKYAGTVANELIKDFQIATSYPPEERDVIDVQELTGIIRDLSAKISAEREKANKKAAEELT

B1: DotZ (natural protein)
chain: MDEIKKDDELSQWLSTYGTITAERILGRYNISLPQDEILEAINIPSSFYRHLLQIPLKNVLNGIVIQQASDYHVYAQKLLIDYLLSGESSKEPDSQGAGTRESLEDERQRLVQLGDEFHKLELEQDNLIASSQASLMKISIDWNTKLETTLSKLNSLYKNTNSKIKKNAIRKALIKAFIHCDLVKDQSQKNKYQLIDKLNQTLAVSVGAELKESILTNLSELFQILEALNTKLDEFTDRTNHLSQQAKSFRTQFYEVILRIIELIKLLPEYKIDPAQDAINREPLYFDRTIGER
B2: DotN (natural protein)
chain: MNVNQTMADNQQRCELKLIASPGSWRLYSARKIDERFKSYEQKIFQRDRYTCQFCGFQARLYQDIVNLDGDYTNNRLSNLVTACCFCAQCFFVESVGVGGYGGGTLIYLPELTQAELNSLCHVLFCAITNDTGYKSSAQNIYRSFKFRSQIVEEKFGEGTSDPAIFGQLMIDSGVNSEEIREKLFKNIRLLPSRAKFRKQIEKWAASALEEIAD
B3: DotY (natural protein)
chain: MPKYTLPTRDALLKAMQVGETSIEAAEYMATRFEQILTKAKLLPECNDMLEKIKEYAQFVKFKLLSSAQVWSGQERPTSDYQNTQENKAEFLASHLEGLPSGLKLEVAIGDDAKILRGFSSNGKMVEGDQLKTMDGLLEGWLAKNSLAISGGAVVKIDNTGNQTKVDPQEIRQLINDSEKGVAKYFADKGVGMEVAQRTYQEPKALETKREEIRQEIESGAEAPTTQSIR

The target in assay [1] is T1, DotL with a C-terminal Strep-tag. The assay can be described thus: affinity purification with mass spectrometry. The settings on record: partners not purified.
In assay [2] the target is B3. The assay can be described thus: cryo-EM structure. The settings on record: both partners purified.
The target of assay [3] is B1. The assay can be described thus: cryo-EM structure. The settings on record: both partners purified.

As to B1, the binding result in assay [1] is reported as “binds”.
As to B2, the binding result in assay [2], in assay [3] and in assay [1] was “binds” each time.
Regarding B3, the binding result in assay [3] is “binds”.
